Test results as given in patent US20220233706A1 (ANTIKOR BIOPHARMA, published 2022).
Where two headings read alike, the source gives them in different places.

Assays:
HER2-Fc [1] = target: T1, HER2-Fc (UniProt P04626 23-652); test: ELISA, plates coated with 10 µg/ml HER2-Fc, anti-T7 peroxidase detection; unmodified scFv (TCT), ELISA
T1 construct: Coated at 10 µg/ml on ELISA plates; also called HER2 antigen; immobilised HER2 target antigen (ELISA); not shown: Fc part
Method: (§1) The DAR was determined by AAA as before (Table 11A & B), this time following the release of the di-proline fragment to identify and quantify the P5-based drug. […] All proteins were detected using the C-terminal T7 Tag which was not expected to be chemically modified (no lysines present). 96-well Immunosorb ELISA plates were coated with 10 μg/ml HER2-Fc in PBS, followed by the test samples, anti-T7-peroxidase conjugate. Extensive PBS/tween-20 and PBS washes were in between each layer and detection was with BM-Blue substrate. […] The DARs were verified by AAA (Tables 11A and 11B).

[2] = target: T2, HER2 immobilised on a Biacore chip (UniProt P04626 23-652, limits assumed); test: Biacore SPR, HER2 amine-coupled to the chip
T2 construct: also called immobilised HER2 target antigen (Biacore SPR); HER2 chip

HER2-Fc [3] = target: T1, HER2-Fc; test: ELISA, plates coated with 10 µg/ml HER2-Fc, anti-T7 peroxidase detection
Method: (§2) All proteins were detected using the C-terminal T7 Tag which was not expected to be chemically modified (no lysines present). 96-well Immunosorb ELISA plates were coated with 10 μg/ml HER2-Fc in PBS, followed by the test samples, anti-T7 peroxidase conjugate. Extensive PBS washes were in between each layer and detection was with BM-Blue substrate.

HER2-Fc [4] = target: T1, HER2-Fc; test: ELISA on plates coated with 10 µg/ml HER2-Fc, detection anti-T7 peroxidase conjugate, absorption at 450 nm
Method: as §2

HER2-Fc [5] = target: T1, HER2-Fc; test: as above; remark: listed apart in the source
Method: as §1

HER2-Fc [6] = target: T1, HER2-Fc; test: ELISA, plates coated with 10 µg/ml HER2-Fc, anti-T7 peroxidase detection; scFv TCT-P5C5(1), 8 drugs loaded, ELISA
Method: as §1

[7] = target: T2, HER2 immobilised on a Biacore chip; test: Biacore SPR, HER2 amine-coupled to the chip; Auristatin-F-C5 conjugate, DAR 11.9
Method: (§3) A standard amine-coupling method was used to prepare all Biacore surfaces (CM5 or CM3), as follows. Flow cells were activated individually by injecting a freshly mixed solution of 0.2M EDC in 0.05 M NHS at 30 μl/min. […] Excess NHS ester was deactivated using a 1 M ethanolamine solution. […] The dissociation time was extended to 3600 s for the highest concentration. Surfaces were regenerated with 45 s injection of MgCl₂ […].

[8] = target: T2, HER2 immobilised on a Biacore chip; test: Biacore SPR, HER2 amine-coupled to the chip; DM1-dPEG12 conjugate, DAR 8
Method: as §3

[9] = target: T2, HER2 immobilised on a Biacore chip; test: Biacore SPR, HER2 amine-coupled to the chip; DM1-dPEG12 conjugate, DAR 7
Method: as §3

[10] = target: T2, HER2 immobilised on a Biacore chip; test: Biacore SPR, HER2 amine-coupled to the chip; MMAE-PAB-Cit-Val-dPEG9 conjugate, DAR 8.6
Method: as §3

koff [2]	kon [2]	EC50 (read off the curve) (HER2-Fc [5])	Kd (HER2-Fc [5])	Binder	also measured
		10 to 20 nM	13 nM	scFv TCT-P5C5(1) (DAR 8) (scFv, P5C5 (from P5C5-NHS, compound 6) on lysine residues, DAR 8.17 by AAA, also called scFv (TCT)-P5C5, DAR = 8; compound 71) scFv: SGSGGSGQVQLVQSGAEVKKPGESLKISCKGSGYSFTSYWIAWVRQMPGKGLEYMGLIYPGDSDTKYSPSFQGQVTISVDKSVSTAYLQWSSLKPSDSAVYFCARHDVGYCSSSNCAAWPEYFQHWGQGTLVTVSSGGGGSGGGGSGGGGSQSVLTQPPSVSAAPGQKVTISCSGSSSNIGNNYVSWYQQLPGTAPKLLIYGHTNRPAGVPDRFSGSKSGTSASLAISGFRSEDEADYYCAAWDDSLSGWVFGGGTKLTVLMASMTGGQQMG	Kd (HER2-Fc [6]): 13 nM
1.76e-05 s⁻¹	21700 M⁻¹ s⁻¹			scFv (TCT1067)-Auristatin-F-C5 DAR 11.9 (scFv, Auristatin F-C5 on lysine residues; DAR 13.4 by AAA, 10.4 by MS, average 11.9, also called TCT1067-AF-C5 ADC 3) scFv: SGSGGSGQVQLVQSGAEVKKPGESLKISCKGSGYSFTSYWIAWVRQMPGKGLEYMGLIYPGDSDTKYSPSFQGQVTISVDKSVSTAYLQWSSLKPSDSAVYFCARHDVGYCTDRTCAAWPEWLGVWGQGTLVTVSSGGGGSGGGGSGGGGSQSVLTQPPSVSAAPGQKVTISCSGSSSNIGNNYVSWYQQLPGTAPKLLIYGHTNRPAGVPDRFSGSKSGTSASLAISGFRSEDEADYYCASWDYTLSGWVFGGGTKLTVLMASMTGGQQMG	Kd [7]: 0.81 nM

More lines, now with the values behind:

Binder	koff [2]	kon [2]	EC50 (read off the curve) (HER2-Fc [5])	Kd (HER2-Fc [5])	also measured
scFv (TCT) (scFv, Anti-HER2 C6.5 scFv with residual Ser, GSGGSG linker and C-terminal T7 tag; also called cleaved TCT; unmodified scFv (TCT)) scFv: SGSGGSGQVQLVQSGAEVKKPGESLKISCKGSGYSFTSYWIAWVRQMPGKGLEYMGLIYPGDSDTKYSPSFQGQVTISVDKSVSTAYLQWSSLKPSDSAVYFCARHDVGYCSSSNCAAWPEYFQHWGQGTLVTVSSGGGGSGGGGSGGGGSQSVLTQPPSVSAAPGQKVTISCSGSSSNIGNNYVSWYQQLPGTAPKLLIYGHTNRPAGVPDRFSGSKSGTSASLAISGFRSEDEADYYCAAWDDSLSGWVFGGGTKLTVLMASMTGGQQMG	0.00417 s⁻¹	2.8e+06 M⁻¹ s⁻¹	~7 nM	6.97 nM	Kd (HER2-Fc [1]): 7 nM; Kd [2]: 1.49 nM; Kd (HER2-Fc [3]): 2.5 nM; EC50 (read off the curve) (HER2-Fc [4]): 2 to 3 nM
scFv (TCT1067)-DM1-dPEG12 DAR 8 (scFv, Maytansine DM1-dPEG12 (from compound 90) on lysine residues, DAR 8 by LC-MS, also called TCT1067-Maytansine-PEG(12) DM1 ADC 2; scFv (TCT1067)-DM1 DAR 8) scFv: SGSGGSGQVQLVQSGAEVKKPGESLKISCKGSGYSFTSYWIAWVRQMPGKGLEYMGLIYPGDSDTKYSPSFQGQVTISVDKSVSTAYLQWSSLKPSDSAVYFCARHDVGYCTDRTCAAWPEWLGVWGQGTLVTVSSGGGGSGGGGSGGGGSQSVLTQPPSVSAAPGQKVTISCSGSSSNIGNNYVSWYQQLPGTAPKLLIYGHTNRPAGVPDRFSGSKSGTSASLAISGFRSEDEADYYCASWDYTLSGWVFGGGTKLTVLMASMTGGQQMG	3.28e-05 s⁻¹	13200 M⁻¹ s⁻¹			Kd [8]: 2.48 nM
scFv (TCT1067)-DM1-dPEG12 DAR 7 (scFv, Maytansine DM1-dPEG12 on lysine residues, 6-8 additions, average DAR 7 by LC-MS, also called TCT1067-Maytansine-PEG(12) DM1 ADC 1; compound 124) scFv: SGSGGSGQVQLVQSGAEVKKPGESLKISCKGSGYSFTSYWIAWVRQMPGKGLEYMGLIYPGDSDTKYSPSFQGQVTISVDKSVSTAYLQWSSLKPSDSAVYFCARHDVGYCTDRTCAAWPEWLGVWGQGTLVTVSSGGGGSGGGGSGGGGSQSVLTQPPSVSAAPGQKVTISCSGSSSNIGNNYVSWYQQLPGTAPKLLIYGHTNRPAGVPDRFSGSKSGTSASLAISGFRSEDEADYYCASWDYTLSGWVFGGGTKLTVLMASMTGGQQMG	2.7e-05 s⁻¹	19500 M⁻¹ s⁻¹			Kd [9]: 1.39 nM
scFv (TCT1067)-MMAE-PAB-Cit-Val-dPEG9 conjugate, DAR 8.6 (scFv, MMAE-PAB-Cit-Val-dPEG9 (from compound 86) on lysine residues; DAR 9.6 by AAA, 7.5 by LC-MS, average 8.6, also called TCT1067-MMAE ADC1) scFv: SGSGGSGQVQLVQSGAEVKKPGESLKISCKGSGYSFTSYWIAWVRQMPGKGLEYMGLIYPGDSDTKYSPSFQGQVTISVDKSVSTAYLQWSSLKPSDSAVYFCARHDVGYCTDRTCAAWPEWLGVWGQGTLVTVSSGGGGSGGGGSGGGGSQSVLTQPPSVSAAPGQKVTISCSGSSSNIGNNYVSWYQQLPGTAPKLLIYGHTNRPAGVPDRFSGSKSGTSASLAISGFRSEDEADYYCASWDYTLSGWVFGGGTKLTVLMASMTGGQQMG	2.23e-05 s⁻¹	22100 M⁻¹ s⁻¹			Kd [10]: 1 nM
